Reference: the RNAGym collection of RNA variant scans (doi:10.1021/acssynbio.7b00057)

B1: Pistol ribozyme (parent)
chain: GGGUCGUUGUUCCAUAAUCGCGUGGAUAUGGCACGCAAGUUUCUACCGGGCACCGUAAAUGUCCGACUGGAGCCGUUCGGGCGGCUAUAAACAGACCUCAGGCCCGAAGCGUGGCGGCACCUGCCGCCGGUGGUAAAAAAGAUCGGAAGAGCACACGUCU

Variants of: B1
Assay: aptazyme ON/OFF ratio, guanine; higher = stronger switching; co-transcriptional cleavage with and without guanine

| Variant | aptazyme ON/OFF ratio |
| --- | --- |
| U7A G9C U10G U11A C13A | 1.02 |
| U7A U8G U10G U11C C12A C13G | 1.11 |
| U7G U8A G9A U10C U11A C12U C13U | 1.05 |
| U7C U8A G9U U10A C12A C13G | 1.16 |
| U7A U8A G9A U10G U11A C12U C13G | 1.16 |
| U7C U8A U10C U11A C12U C13U | 1.16 |
| U8C G9U U10C U11G C12A C13U | 1.12 |
| U7G U8G U11A | 1.67 |
| U7A U8G C12A | 1.22 |
| U7C U8A G9C U10C C13G | 1.05 |
| U7G U8A G9U U10A U11C | 1.03 |
| U7A G9U U10C C12A C13U | 1.16 |
| U7A U8A G9U U10C U11G C12G C13G | 1.21 |
| U7G U8G G9U U10A U11G C12U C13G | 1.11 |
| U7C U10G C12G | 1.18 |
| U7G G9U U11C C12U C13G | 1.3 |
| U7A U8A U11C C12U C13A | 1.21 |
| U7A U8G G9U U10A C12A C13G | 1.28 |
| U11A C12A | 2.18 |
| U8A U10A C12G | 1.16 |
| U7A U8G U10C U11C C12G | 1.42 |
| U8A U10G U11A C13G | 1.12 |
| U7A U10A C12A C13U | 1.39 |
| U7C U8G G9U U10A U11G C13U | 1.28 |

| Variant | aptazyme ON/OFF ratio |
| --- | --- |
| U7C U8C G9C U10C U11C C13U | 0.989 |
| U7A U8C G9A U10C U11G C12A C13G | 1.33 |
| U8G G9A U10G U11G C12G C13U | 1.37 |
| U7G U8G U10G U11A C13A | 1.21 |
| U7A U8G C13U | 1.2 |
| U10C U11G C12A C13G | 1.31 |
| U7C U8C G9C C12U C13A | 1.16 |
| U8G G9C U10G U11C C13A | 1.05 |
| U7G U11G C12A | 1.11 |
| U7C U8G G9A U10C U11C C12A C13A | 1.03 |
| U8G G9C U10C U11G C12U C13U | 1.07 |
| U7G U8C G9U U11C | 2.88 |
| U7C U8C G9C | 1.13 |
| U7A G9A U10G U11A C12A C13G | 1.15 |
| U7C U8G G9A U10G U11C C12G C13G | 1.41 |
| U8C U10G U11C C13U | 1.04 |
| U7G U8G G9A U10A U11C C12A C13A | 1.06 |
| U7C U8C G9U U11G C12G C13G | 1.14 |
| U7C U8A G9C C12A C13A | 1.15 |
| U7A U8A U10C U11C C13G | 1.07 |
| U8A G9C U10G U11C C12U C13G | 1.18 |
| U7A U8G G9A U10C U11G C12G C13U | 1.1 |
| U7G G9A U11G C12G | 1.17 |
| U8C G9C U11A | 1.18 |

| Variant | aptazyme ON/OFF ratio |
| --- | --- |
| U7C G9U U10A U11G C12U C13G | 1.11 |
| U8A G9U U10C C12U C13A | 1.08 |
| U8A G9A U10A U11G C13G | 1.08 |
| U7A U8A G9U U10C | 2.34 |
| U7G U8A U10C U11G C12U C13A | 1.2 |
| U7G U8A G9U U10C C13U | 1.38 |
| U7A U8A G9C U11G C12A C13G | 1.22 |
| U8A G9A U11A C12A C13U | 1.35 |
| U7C G9C U10A C12A | 1.04 |
| U7A U8C G9A U11G C13G | 1.31 |
| U8A G9C U10A U11C C12U C13G | 1.15 |
| U8A G9C U10G C12A C13A | 1.19 |
| U7A U8C G9C U10C U11G C12G | 1.08 |
| U7A U8G G9U U11A C12U | 1.38 |
| U7G U8A G9U U10C C12A | 1.2 |
| U8G G9U U10G U11G C12G C13A | 1.07 |
| U8C C12A C13U | 1.21 |
| U7G G9U U10G | 3.04 |
| U7C U8C G9A U10G C12A C13U | 1.06 |
| U7G U10G C12G C13G | 1.07 |
| U7C U8C U10G U11C C12G C13U | 1.17 |
| G9U U10A U11G C12G C13G | 1.11 |
| U7A G9A U10G U11A C12U C13G | 1.06 |
| U7G U8G G9U U11G C12G C13U | 1.22 |

| Variant | aptazyme ON/OFF ratio |
| --- | --- |
| U7G U8A G9U U10C U11A C12U C13A | 1.05 |
| U7A U8G G9U U10C U11C C12U C13A | 1.14 |
| U7C U10C U11C C13U | 1.08 |
| U7C U8A G9A U10A U11G C12U C13A | 1.21 |
| U7G U8G U10A U11C C12U C13U | 1.5 |
| U7C U8C U10A U11A C12A | 1.19 |
| U8C G9C C12U C13U | 1.13 |
| U7C U8A U10G U11C C12A C13G | 1.11 |
| U7G G9U U10G U11C C12U C13A | 1.23 |
| U7G G9U U10G U11C C12U C13G | 1.25 |
| U7G U11G C13A | 1.06 |
| U7G U8A G9U U10C U11G C12G C13A | 1.07 |
| U7A U8G G9C U10G C12G C13G | 1.17 |
| U8A G9U U10C U11G C13G | 1.05 |
| U8G G9U U10G C13A | 1.04 |
| U7C G9U U10C U11G C13G | 1.04 |
| U8G G9U U10G U11A C12G C13A | 1.05 |
| U7C U8C G9A U11C C12U C13A | 1.19 |
| U7C U8G U10G U11G C12U C13A | 1.25 |
| U7C U8A G9A U10C U11A C12A C13A | 1.13 |
| U7A G9U U10A U11G C12A | 1.07 |
| U7A G9U U11C | 1.15 |
| U7G U8C G9A U10A U11C C12G C13G | 1.03 |
| U7G U8C G9A U10A U11C C12G C13A | 1.08 |

| Variant | aptazyme ON/OFF ratio |
| --- | --- |
| U7A U8G G9U U10A C12U C13G | 1.36 |
| U8C G9C U11G C12A C13U | 1.1 |
| U7A U8A G9A U10C U11C C13A | 1.01 |
| U7G U8G G9C U10G U11G C12G C13U | 1.1 |
| U8A G9A U10C U11C | 1.04 |
| U8A G9C | 1.2 |
| U7A U8A G9A U10C C12U C13A | 1.01 |
| U7A U8G G9U U10G U11A C12G C13G | 1.38 |
| U7A G9C U11A C12G | 1.08 |
| U7C U8C G9A U10C U11G C12A C13A | 1.28 |
| U8C G9U U10C U11C C12A C13U | 1.07 |
| U7C U8G G9A U10G U11C C12U C13A | 1.34 |
| G9A U10A C12U C13G | 1.24 |
| U8C G9C U10G U11G C12G | 1.13 |
| U7G U8A G9A U10G C13U | 1.35 |
| U7G U8A U11G C12U C13A | 1.34 |
| U7G G9A U10C U11G C12A | 1.09 |
| U7C G9A U10A C12U | 1.35 |
| U7A U8G G9A U10G U11A C12U C13A | 1.7 |
| U7C U8A G9U U11C C12G C13U | 1.16 |
| U7G U8G G9A U11G C13U | 1.3 |
| U7G U8C G9U U11A C12G | 2.17 |
| U7A G9A U10A C12U | 1.21 |
| U7A U8G U10C C12A | 1.33 |

| Variant | aptazyme ON/OFF ratio |
| --- | --- |
| U7A U8G G9A U10A U11G C12U | 1.14 |
| U8C G9A U11G C12A | 1.06 |
| U7A U8A G9C U10A U11C C12G C13U | 1.27 |
| U7C U8A G9A U11A C12U C13U | 1.27 |
| U8C G9U U10A U11G C13G | 1.11 |
| U8A G9C U10G U11G | 1.07 |
| U7A G9A U10A U11C C12G C13U | 1.2 |
| U8G G9U U10A C12U C13U | 1.17 |
| U7G U8A G9A U10G U11G C12A C13U | 1.17 |
| U7G G9U U10G U11C C12A C13U | 1.33 |
| U7G U8A C13A | 1.35 |
| U7G U8A U10C U11C C12G C13A | 1.32 |
| U7A U11G C12U C13U | 1.13 |
| U7G U8C G9C U10G U11C C12U | 1.12 |
| U7A U10C U11G C12G C13G | 1.31 |
| U8G U11G | 1.25 |
| U7A U8C C13U | 1.51 |
| U7C U8C G9U U10C U11A C12A C13G | 1.17 |
| U7G U8A G9A U10G U11G C13A | 1.29 |
| U8A G9U U10C C12G C13U | 1.25 |
| U8A G9A U10C U11C C13U | 1.05 |
| U7G U8C G9A U10A C12U C13A | 1.15 |
| U7A U8G G9A U10A U11C C12A C13G | 1.33 |
| U7A U8A G9A U10G C12A C13U | 1.2 |

| Variant | aptazyme ON/OFF ratio |
| --- | --- |
| U7C G9U C12U C13G | 1.1 |
| G9U U10A U11G | 2.39 |
| U7G U8G G9U U10A U11G C12A C13G | 1.04 |
| U8G G9C U10A C12G C13U | 1.17 |
| U7A U8C G9U U10A U11G C12G | 1.12 |
| G9C U10C C12G C13A | 1.06 |
| U8G U11C C12U C13A | 1.33 |
| U7G U8A G9A U11A | 1.45 |
| U7C U8G G9U U10G C12U C13A | 1.17 |
| U8C G9U U11C | 1.07 |
| U7C G9C U11A C12A | 1.07 |
| U7C U8G G9A C12U C13A | 1.16 |
| U7A G9C U10A C12U C13U | 1.12 |
| U7C U8C G9A U10C U11A C12A C13A | 1.18 |
| U8G G9C U10G U11G C12U C13G | 1.14 |
| U7C U8G G9U U10A U11C C12U C13G | 1.11 |
| U7C U8G G9C C12U | 1.11 |
| U7G U8A G9C U10A U11C C12U | 1.04 |
| G9U U10A U11A C12G C13A | 0.999 |
| U7A U8A U10A C12G C13G | 1.17 |
| U7C U8C G9A U10A U11G C12G C13G | 1.15 |
| U7G U8A G9C U10G C12A C13A | 1.06 |
| U7A U8G G9A U10C C12U C13A | 1.17 |
